5 molecules from patent US10106589B2, “Compositions and methods for immunomodulation” (FUNDACIO INSTITUT D'INVESTIGACIO BIOMEDICA DE BELLVITGE …, priority 2011, dated 2018) can be followed below.

Entries after “also recorded” stand apart in the source; their conditions may differ.

Data set [1] has as its system human Mo-DCs. Kind of data set: Flow cytometry of cell surface markers on treated, LPS-matured Mo-DCs. The note with it: CCP6-based peptides at 100 μM. (Flow cytometry measures light scatter and fluorescence of single cells or particles in a stream.)
Another data set has as its system allogeneic CD3+ T cells. Kind of data set: Mixed leukocyte reaction ([3H]-thymidine incorporation). It is filed as cell-based, human. The note with it: Mo-DCs pre-incubated and matured with LPS; DC:T 1:40, 1:80, 1:160; 5 days. Here is the method:
CD3^+ T cells (10^5/well) and C4BP-treated (α7β1 and α7β0), or Factor H-treated, and LPS-activated Mo-DCs were seeded in a 96-well round-bottom plate at various DC:T cell ratios (1:40, 1:80 and 1:160) and cultured in X-VIVO 15 medium (Biowittaker, Walkersville, Md.) supplemented with 100 μg/ml of streptomycin, 100 IU/ml of penicillin and 2 mM L-glutamine (all from Invitrogen) plus 2% Human AB Serum. Allospecific proliferation was measured after 5 days of incubation. At day 4, the […] [^3H]-thymidine (1 μCi/well, Perkin Elmer, Boston, Mass.) was added, followed by incubation for another 16 h. Labeled cells were then harvested onto glass-fiber filters with a Filtermate Harvester (Packard, Meriden, Conn.), and the T cell proliferation rate was determined by the amount of [^3H]-thymidine incorporation, which was measured in a TopCount NXT counter (Packard). Results are reported as the mean cpm±SD of thymidine incorporation in quadruplicate culture wells.
For orientation: Uptake of a labelled nucleoside into DNA is a usual measure of proliferation.

For data set [2], the system named is human Mo-DCs. The data set is described as follows: Flow cytometry of cell surface markers on treated, LPS-matured Mo-DCs. The note with it: treated throughout differentiation and maturation, LPS-matured; for CD1a expression / CD80 expression / CD83 expression / CD86 expression: dose-dependent; for expression of surface markers (CD14, HLA-DR, CD40, CD80, CD83, CD86, CD1a): vs untreated mDC. It is filed as cell-based. On the procedure: Peripheral blood mononuclear cells (PBMCs) were obtained from buffy coat preparations belonging to healthy donors from the Blood and Tissue Bank (Barcelona, Spain) after Ficoll-Paque™ density centrifugation (GE Healthcare Bio-Sciences AB; Uppsala, Sweden). Monocytes were purified by two different methods: 1) Cells were plated at 1×10^6 cells/ml in 60 mm culture plates (Corning, Spain) in RPMI without serum and allowed to adhere for 2 h at 37° C. in 5% CO2. The non-adherent cells were removed by washing in PBS. […] 2) Cells were purified using colloidal super-paramagnetic microbeads conjugated with monoclonal mouse anti-human CD14 antibodies (MACS, Miltenyi Biotec, Auburn, Calif., or EasySep® Positive Selection Cocktail, StemCell Technologies, Grenoble, France). The purity of CD14^+ cells was tested by CD14 staining and flow cytometry analysis (>90% CD14^+ cells). Monocyte-derived DCs (Mo-DCs) were generated supplementing the monocyte cultures with complete RPMI 1640 medium plus GM-CSF (800 UI/ml) and IL-4 (500 UI/ml) (both from Gentaur, Kampenhout, Belgium) at day 0 and day 3 of culture. For DC maturation, at day 5 iDCs were further stimulated for 48 h with 5 μg/ml LPS (Escherichia coli 055.B5, Sigma L2880, Copenhagen, Denmark).
Cell surface phenotypes were analyzed using the following monoclonal antibodies: FITC-conjugated anti-HLA-DR (Immu-357), FITC-conjugated anti-CD83 (HB15a), FITC-conjugated anti-CD14 (RMO52), PE-conjugated anti-CD40 (MAB89), PE-conjugated anti-CD1a (BL6), PE-conjugated anti-CD80 (MAB104), PE-conjugated anti-CD86 (HA5.2B7) (all from Beckman-Coulter), Alexa Fluor 488-conjugated anti-CCR7 (TG8/CCR7, Biolegend, San Diego, Calif.), and the respective isotype controls from the same commercial sources. After washing with PBS, cells were subsequently stained with 3 μl MoAb/10^5 cells in 100 μl of FACS buffer (PBS containing 1% BSA and 0.1% sodium azide) for 20 min at room temp. Stained cells were analysed using a FACScalibur (Becton Dickinson). Mo-DCs were gated according to forward scatter (FSC) and side scatter (SSC) parameters. The results were analysed using CellQuestPro software (Becton Dickinson).
Both the different C4BP isoforms (α7β1, α7β0 and α6β0), and Factor H were added at 2, 5 and 10 μg/ml throughout Mo-DC differentiation, maturation, or both. Namely, for the differentiation assays the proteins were added at day 0 and replenished at day 3. For the maturation assays the proteins were added at day 5, either alone or combined with LPS. Finally, for the differentiation plus maturation assays the proteins were added at days 0, 3 and 5 (at the last time point, combined with LPS).

Data set [3] has as its system human Mo-DCs. The data set is described as follows: Scanning electron microscopy of Mo-DC surface morphology. Type of data set: cell-based. The conditions noted are these: SEM after 48 h LPS maturation. Here is the method:
Monocytes were seeded on glass slides covered with either poly-L-lysine (25 μg/ml) or fibronectin (42 μg/ml), cultured for 5 days in complete RPMI medium supplemented with 800 U/ml GM-CSF, 500 U/ml IL-4, and the C4BP isoforms α7β1, α7β0, or Factor H (10 μg/ml), and further stimulated with LPS for 48 hours in the same medium. The resulting DCs were fixed in 1% paraformaldehyde and 1.25% glutaraldehyde in cacodylate buffer for 2 h. Finally, the cells were post-fixed in 1% OsO4, and dehydrated with graded series of ethanol followed by acetone. After dehydration the cells were dried in a critical-point dryer and coated with gold before observation by scanning electron microscopy (Zeiss DSM940A).

The subject of data set [4] is human Mo-DCs. The data set is described as follows: Quantitative RT-PCR of CCR7, IDO, BIC-1, SOD2 in Mo-DCs. It is filed as cell-based. The conditions noted are these: RT-qPCR; pretreated, LPS-matured Mo-DCs. On the procedure:
Mo-DCs (10^6/condition) were harvested at day 7 and the mRNA was extracted using the RNeasy RNA Isolation kit (Qiagen) and incubated with RNase-free DNase I (Ambion, Austin, Tex.) according to the manufacturer's protocol. A two-step real-time RT-PCR technique was used to determine the relative mRNA levels of human CCR7, BIC-1, IDO and SOD2. Reverse transcription reactions were performed with 500 ng of total RNA using the Omniscript RT kit (Qiagen). Quantification of mRNA levels was performed by real-time polymerase chain reaction (PCR) with the use of the LightCycler technology (Roche Molecular Biochemicals, Indianapolis, Ind.). The following primers were used: CCR7-f (5′-TGGGCATCTGGATACTAGC-3′) (SEQ ID NO:6), CCR7-r (5′-AAGAAAGGGTTGACGCAGC-3′) (SEQ ID NO:7); IDO-f (5′-[…]-3′) (SEQ ID NO:8); IDO-r (5′-[…]-3′) (SEQ ID NO:9); BIC-1-f (5′-[…]-3′) (SEQ ID NO:10), BIC-1-r (5′-[…]-3′) (SEQ ID NO:11); SOD2-f (5′-GACAAACCTCAGCCCTAAC-3′) (SEQ ID NO:12), SOD2-r (5′-[…]-3′) (SEQ ID NO:13), yielding products of 435, 227, 296 bp, and 248 bp, respectively. These gene-specific primer pairs were designed using Oligo 4.0 and Primer 3 software packages (MBI, Cascade, Colo.) and selected to prevent primer-dimer formation.
All samples were normalized with the use of the following primer set for the constitutively expressed human cyclophilin gene: CypA-f (5′-[…]-3′) (SEQ ID NO:14) and CypA-r (5′-CACCACATGCTTGCCATCC-3′) (SEQ ID NO:15) (Pluvinet R. et al., 2004, Blood. 104: 3642-3646). All primers were purchased from Bonsai Technologies (Copenhagen, Denmark).
PCR amplifications were performed in a 20 μl volume containing 2 μl ready-to-use reaction mix, 10×DNA Master SYBR Green I (Roche Molecular Biochemicals); MgCl2 (3 mM for CCR7; 4 mM for BIC-1 and SOD2, and 5 mM for IDO); 0.15 μM of each primer; 5% dimethyl sulfoxide (DMSO); and 75 ng cDNA as template. The amplification program used an initial denaturation at 95° C. for 10 min, followed by 45 cycles: 95° C. for 1 sec; 58° C. (CCR7 and SOD2)/60° C. (BIC-1 and IDO) for 5 sec; 72° C. for 10 sec.

Consider “Ac-HRKSRPANHSVYFYGDEISFSSHETSRFSA-NH2 [PS6-02]”, for which, in the data set on human Mo-DCs [1], the “CD83 upregulation on LPS-matured Mo-DCs” value is given as “seemed to prevent CD83 upregulation” and the “toxicity to the DCs” value is given as “toxic”.

For “PS6-03: SEQ ID NO:4 EISFSSH ETSRFSAISQ GDGTWSPRTP SSG, CCP6-derived peptide (EISFSSHETSRFSAISQGDGTWSPRTPSSG; PS6-03)”, the “CD83 upregulation on LPS-matured Mo-DCs” value in the data set on human Mo-DCs [1] was “seemed to prevent CD83 upregulation”.

“PS6-04: SEQ ID NO:5 ITQHRK SRPANHSV, 14-mer CCP6-derived peptide (ITQHRKSRPANHSV; PS6-04)”: in the data set with human Mo-DCs [1], the “CD83 upregulation on LPS-matured Mo-DCs” value is “comparable effect than its C4BP α6β0 counterpart”.

B1: C4BP α7β0: C4BP isoform exclusively composed of 7 α-chains, purified from pooled human plasma (protein, UniProt P04003 49-597, looked up)
C4b-binding protein alpha …: NCGPPPTLSFAAPMDITLTETRFKTGTTLKYTCLPGYVRSHSTQTLTCNSDGEWVYNTFCIYKRCRHPGELRNGQVEIKTDLSFGSQIEFSCSEGFFLIGSTTSRCEVQDRGVGWSHPLPQCEIVKCKPPPDIRNGRHSGEENFYAYGFSVTYSCDPRFSLLGHASISCTVENETIGVWRPSPPTCEKITCRKPDVSHGEMVSGFGPIYNYKDTIVFKCQKGFVLRGSSVIHCDADSKWNPSPPACEPNSCINLPDIPHASWETYPRPTKEDVYVVGTVLRYRCHPGYKPTTDEPTTVICQKNLRWTPYQGCEALCCPEPKLNNGEITQHRKSRPANHCVYFYGDEISFSCHETSRFSAICQGDGTWSPRTPSCGDICNFPPKIAHGHYKQSSSYSFFKEEIIYECDKGYILVGQAKLSCSYSHWSAPAPQCKALCRKPELVNGRLSVDKDQYVEPENVTIQCDSGYGVVGPQSITCSGNRTWYPEVPKCEWETPEGCEQVLTGKRLMQCLPNPEDVKMALEVYKLSLEIEQLELQRDSARQSTLDKEL
For B1, in the data set on allogeneic CD3+ T cells, the “allogeneic T cell proliferation” value is reported as “significantly less T cell proliferation”. Further, in the data set with human Mo-DCs [2], the CD1a expression result is reported as “significantly down-regulated”, the CD80 expression entry was “significantly down-regulated”, the CD83 expression entry is “significantly down-regulated” and the CD86 expression result was “significantly down-regulated”. Also, the “expression of surface markers (CD14, HLA-DR, CD40, CD80, CD83, CD86, CD1a)” value in the data set with human Mo-DCs [2] is reported as “inhibit up-regulation”. Also, the “surface morphology of Mo-DCs” value in the data set with human Mo-DCs [3] is “absence of long dendritic projections; also recorded: reversed the “porcupine like” DC morphology”. In the data set with human Mo-DCs [4], the BIC-1 transcript level entry is reported as “significantly down-regulated”, the CCR7 transcript level entry is “significantly down-regulated” and the IDO transcript level entry is recorded as “significantly down-regulated”.

B2: C4BP α6β0: polymeric recombinant full-length C4BP of 6 α-chains, expressed in eukaryotic cells (protein, UniProt P04003 49-597, looked up)
C4b-binding protein alpha …: NCGPPPTLSFAAPMDITLTETRFKTGTTLKYTCLPGYVRSHSTQTLTCNSDGEWVYNTFCIYKRCRHPGELRNGQVEIKTDLSFGSQIEFSCSEGFFLIGSTTSRCEVQDRGVGWSHPLPQCEIVKCKPPPDIRNGRHSGEENFYAYGFSVTYSCDPRFSLLGHASISCTVENETIGVWRPSPPTCEKITCRKPDVSHGEMVSGFGPIYNYKDTIVFKCQKGFVLRGSSVIHCDADSKWNPSPPACEPNSCINLPDIPHASWETYPRPTKEDVYVVGTVLRYRCHPGYKPTTDEPTTVICQKNLRWTPYQGCEALCCPEPKLNNGEITQHRKSRPANHCVYFYGDEISFSCHETSRFSAICQGDGTWSPRTPSCGDICNFPPKIAHGHYKQSSSYSFFKEEIIYECDKGYILVGQAKLSCSYSHWSAPAPQCKALCRKPELVNGRLSVDKDQYVEPENVTIQCDSGYGVVGPQSITCSGNRTWYPEVPKCEWETPEGCEQVLTGKRLMQCLPNPEDVKMALEVYKLSLEIEQLELQRDSARQSTLDKEL
For B2, in the data set on human Mo-DCs [2], the CD1a expression result is on record as “significantly down-regulated”, the CD80 expression result was “significantly down-regulated”, the CD83 expression result was “significantly down-regulated” and the CD86 expression entry was “significantly down-regulated”. In the data set on human Mo-DCs [2], the “expression of surface markers (CD14, HLA-DR, CD40, CD80, CD83, CD86, CD1a)” value is “inhibit up-regulation”. In addition, the “surface morphology of Mo-DCs” value with human Mo-DCs [3] is reported as “reversed the “porcupine like” DC morphology”. In the data set with human Mo-DCs [4], the BIC-1 transcript level entry is listed as “significantly down-regulated”, the CCR7 transcript level entry was “significantly down-regulated” and the IDO transcript level result is “significantly down-regulated”.
